Assay results: article PMC4383704 (Cancer research, 2015)

Biological target: mouse uPA (Mus musculus, UniProt P06869)
Assay: ELISA

Sequence of mouse uPA (P06869 21-433): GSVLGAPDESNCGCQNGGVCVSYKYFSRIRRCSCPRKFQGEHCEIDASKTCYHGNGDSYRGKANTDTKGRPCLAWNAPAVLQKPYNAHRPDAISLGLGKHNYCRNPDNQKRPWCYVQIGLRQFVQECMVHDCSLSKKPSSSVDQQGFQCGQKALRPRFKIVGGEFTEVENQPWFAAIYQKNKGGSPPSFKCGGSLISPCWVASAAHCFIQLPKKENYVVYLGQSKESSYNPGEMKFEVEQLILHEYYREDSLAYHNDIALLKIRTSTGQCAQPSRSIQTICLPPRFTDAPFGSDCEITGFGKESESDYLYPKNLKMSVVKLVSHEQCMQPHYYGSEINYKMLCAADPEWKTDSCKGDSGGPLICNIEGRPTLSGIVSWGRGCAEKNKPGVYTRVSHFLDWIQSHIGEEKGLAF

B1: U33 Fab (Fab, V domains shown)
VH: EVQLVQSGGGLVKPGRSLRLSCTASGFTFGDYAMSWVRQAPGKGLEWVGFIRSKAYGGTTEYAAVKGRFTISRDDSKSIAYLQMNSLKTEDTAVYYCIRGANWNWGQGTLVTVSS
VL: EIVLTQSPLSLPVTPGEPASISCRSSQTLMNRNGNNFLDWYLQKPGQSPQLLIYLGSNRAPGVPDRFSGSGSGTDFTLKISRVEAEDVGVYYCMQRIEFPYTFGQGTKLEIK
binding result: no binding (tested: 1 μM)
